Several values for one entry are separate records, joined by “and”; a condition that tells them apart may be missing. Identical values can stand only once. One block for each molecule: values may come before it.
Tests used:
[1] = molecular target: His6-tagged BiP (residues 27–655) (UniProt P20029); assay: pull-down; Ni-NTA pull-down of His6-tagged BiP protein (4 µM) with 4 µM Strep-tagged or untagged GRP94 protein; 60 min at 37 °C, 50 mM HEPES pH 7.5, 50 mM NaCl, 2 mM MgCl2, 50 µM ATP, 3 µM BSA; Coomassie bands quantified
[2] = molecular target: Strep–linker–TEV site–GRP94 (73–802) (UniProt P08113); assay: negative-stain EM; 16 µM BiP and 32 µM HT2 reacted with 32 µM HyT36, 30 min at 37 °C with 50 µM ATP, then 16 µM GRP94 Δ72; GraFix (5–45% glycerol, 0.5% glutaraldehyde), fraction 12; single-particle negative stain, models fitted with Rosetta at 20 Å
[3] = molecular target: BiP-E243K (UniProt P20029); assay: pull-down; Ni-NTA pull-down of His6-tagged BiP protein (4 µM) with 4 µM Strep-tagged or untagged GRP94 protein; 60 min at 37 °C, 50 mM HEPES pH 7.5, 50 mM NaCl, 2 mM MgCl2, 50 µM ATP, 3 µM BSA; Coomassie bands quantified
[4] = molecular target: the molecule itself; assay: cross-linking; XL-MS: DSBU crosslinking (4 µM each), high-molecular-weight SDS–PAGE bands digested and analysed by LC–MS/MS, 5% FDR on residue pairs; GRP94 Δ72^noPT samples with 100 µM PU-WS13

- percent reduction of GRP94 bound, against GRP94 Δ72 with its tag [1]: 65%
Molecule: GRP94 Δ72^noPT (from UniProt P08113 73-802) (domain or fragment)

- percent reduction of GRP94 Δ72 copurified, against the wild-type pair [1]: 85%
Molecule: GRP94-K463E (Strep-tagged GRP94 Δ72 interface I mutant) (from UniProt P08113 73-802) (domain or fragment)

- percent reduction of GRP94 Δ72 copurified, against the wild-type pair [1]: 85%
Molecule: GRP94-K467E (Strep-tagged GRP94 Δ72 interface I mutant) (from UniProt P08113 73-802) (domain or fragment)

- stoichiometry N (BiP per GRP94 dimer) [2]: 1 and 2
Molecule: His6-tagged BiP (residues 27–655) (from UniProt P20029 27-655) (natural protein)

- percent decrease of binding, against GRP94 Δ72 [1]: 30%
Molecule: Strep-tagged GRP94 Δ72-R116G interface II mutant (from UniProt P08113 73-802) (domain or fragment)

- stoichiometry N [2]: 2
- percent reduction of GRP94 Δ72 copurified, against the wild-type pair [3]: 85%
Molecule: Strep–linker–TEV site–GRP94 (73–802) (from UniProt P08113 73-802) (domain or fragment)

- percent less GRP94 pulled down, against GRP94 Δ72 [1]: 75%
B1: Strep-tagged GRP94 FL (residues 23–802) (natural protein, mouse (cDNA of C2C12 cells), UniProt P08113 23-802, looked up)
chain: DEVDVDGTVEEDLGKSREGSRTDDEVVQREEEAIQLDGLNASQIRELREKSEKFAFQAEVNRMMKLIINSLYKNKEIFLRELISNASDALDKIRLISLTDENALAGNEELTVKIKCDKEKNLLHVTDTGVGMTREELVKNLGTIAKSGTSEFLNKMTEAQEDGQSTSELIGQFGVGFYSAFLVADKVIVTSKHNNDTQHIWESDSNEFSVIADPRGNTLGRGTTITLVLKEEASDYLELDTIKNLVRKYSQFINFPIYVWSSKTETVEEPLEEDEAAKEEKEESDDEAAVEEEEEEKKPKTKKVEKTVWDWELMNDIKPIWQRPSKEVEEDEYKAFYKSFSKESDDPMAYIHFTAEGEVTFKSILFVPTSAPRGLFDEYGSKKSDYIKLYVRRVFITDDFHDMMPKYLNFVKGVVDSDDLPLNVSRETLQQHKLLKVIRKKLVRKTLDMIKKIADEKYNDTFWKEFGTNIKLGVIEDHSNRTRLAKLLRFQSSHHSTDITSLDQYVERMKEKQDKIYFMAGSSRKEAESSPFVERLLKKGYEVIYLTEPVDEYCIQALPEFDGKRFQNVAKEGVKFDESEKTKESREATEKEFEPLLNWMKDKALKDKIEKAVVSQRLTESPCALVASQYGWSGNMERIMKAQAYQTGKDISTNYYASQKKTFEINPRHPLIRDMLRRIKEDEDDKTVMDLAVVLFETATLRSGYLLPDTKAYGDRIERMLRLSLNIDPEAQVEEEPEEEPEDTSEDAEDSEQDEGEEMDAGTEEEEEETEKESTEKDEL
notes: cloned from C2C12 complementary DNA into pET21d; also called Strep–GRP94 FL; FL GRP94 wild-type protein; source: E. coli BL21(DE3), purified (StrepTrap HP, SEC); not shown: Strep, N-terminal, kept
- binding result [4]: binds

From publication PMC12527940, “Conformational plasticity of a BiP–GRP94 chaperone complex” (Nature Structural & Molecular Biology, 2025)
